In article PMC9896144, “A “grappling hook” interaction connects self-assembly and chaperone activity of Nucleophosmin 1” (PNAS Nexus, 2023):
Where “and” joins values, the source holds several entries; their conditions need not be identical. Equal entries are not always repeated.

B1: NPM1AML, NPM1 variant with an AML mutation at the C-terminus (natural protein, human, UniProt P06748 1-294, looked up)
chain: MEDSMDMDMSPLRPQNYLFGCELKADKDYHFKVDNDENEHQLSLRTVSLGAGAKDELHIVEAEAMNYEGSPIKVTLATLKMSVQPTVSLGGFEITPPVVLRLKCGSGPVHISGQHLVAVEEDAESEDEEEEDVKLLSISGKRSAPGGGSKVPQKKVKLAADEDDDDDDEEDDDEDDDDDDFDDEEAEEKAPVKKSIRDTPAKNAQKSNQNGKDSKPSSTPRSKGQESFKKQEKTPKTPKGPSSVEDIKAKMQASIEKGGSLPKVEAKFINYVKNCFRMTDQEAIQDLCLAVEEVSLRK
notes: Compared directly with FL NPM1, so most likely the whole protein with the changed C-terminus; also called AML variant; source: purified by the authors
B2: rpL5_(21-37), residues 21 to 37 of ribosomal protein L5 (peptide, UniProt P46777 21-37, looked up)
peptide: RRRREGKTDYYARKRLV
notes: ribosomal protein L5 (rpL5), residues 21 to 37, with two basic motifs; printed mass 2.2 kDa; also called rpL5 peptide; rpL5_(12-37)
B3: NPM1_(120), the N-terminal pentamerization domain (NTD) of NPM1 (domain or fragment, human, UniProt P06748 1-120, looked up)
chain: MEDSMDMDMSPLRPQNYLFGCELKADKDYHFKVDNDENEHQLSLRTVSLGAGAKDELHIVEAEAMNYEGSPIKVTLATLKMSVQPTVSLGGFEITPPVVLRLKCGSGPVHISGQHLVAVE
notes: Nucleophosmin 1, human, NTD with the A1 tract, residues 1 to 120; exact construct and tags are in the supplementary methods; also called NPM120; isolated NTD; source: produced by the authors
B4: NPM1_(188), the NTD and the acidic regions of the IDR of NPM1 (domain or fragment, human, UniProt P06748 1-188, looked up)
chain: MEDSMDMDMSPLRPQNYLFGCELKADKDYHFKVDNDENEHQLSLRTVSLGAGAKDELHIVEAEAMNYEGSPIKVTLATLKMSVQPTVSLGGFEITPPVVLRLKCGSGPVHISGQHLVAVEEDAESEDEEEEDVKLLSISGKRSAPGGGSKVPQKKVKLAADEDDDDDDEEDDDEDDDDDDFDDEEAEE
notes: Nucleophosmin 1, human, NTD and acidic tracts A1-3, C-terminally truncated at residue 188; exact construct and tags are in the supplementary methods; Mostly pentameric; also called NPM188; source: produced by the authors

What was measured:
[1] = target: NPM1_(ΔIDR), NPM1 variant in which NTD and CTD are linked without the IDR (human) (UniProt P06748); assay: native MS; each NPM1 variant alone; nESI with collision-induced dissociation, collision voltages 25 to 75 V
[2] = target: the molecule itself; assay: as above
[3] = target: T1, Full-length (FL) Nucleophosmin 1 (human, UniProt P06748 1-294); assay: native MS; NPM1_120 or FL NPM1 in the presence of the rpL5_21-37 peptide; collisional activation; settings: both partners purified
T1 construct: Forms pentamers that assemble into large oligomers without defined stoichiometry; PDB 8AS5 models only the N-terminal core; also called NPM1; FL NPM1; source: produced by the authors

[4] = target: B3; assay: as above; settings: both partners purified
[5] = target: the molecule itself; assay: as above

“NPM1_(ΔIDR), NPM1 variant in which NTD and CTD are linked without the IDR (from UniProt P06748 1-120; P06748 240-294)” was tested, and the stoichiometry N [1] was 5 and 10.

B1: binds [2].

B2: binds [3]; binds [4].

For B3, the “stoichiometry N” value [5] was at least 25 subunits and the “stoichiometry N” value [2] was 10.

With B4 the “stoichiometry N” value [2] was 5 and 10.
